# From patent US20230241247
# B1: immunoglobulin G (IgG)-degrading enzyme from Streptococcus pyogenes (IdeS; Promega) (protein)
# chain: DSFSANQEIRYSEVTPYHVTSVWTKGVTPPANFTQGEDVFHAPYVANQGWYDITKTFNGKDDLLCGAATAGNMLHWWFDQNKDQIKRYLEEHPEKQKINFNGEQMFDVKEAIDTKNHQLDSKLFEYFKEKAFPYLSTKHLGVFPDHVIDMFINGYRLSLTNHGPTPVKEGSKDPRGGIFDAVFTRGDQSKLLTSRHDFKEKNLKEISDLIKKELTEGKALGLSHTYANVRINHVINLWGADFDSNGNLKAIYVTDSDSNASIGMKKYFVGVNSAGKVAISAKEIKEDNIGAQVLGLFTLSTGQDSWNQTN
# Legend:
# [1] = target: hamster IgG (IgG in pooled hamster plasma)
# [2] = target: human IgG (total IgG in human serum / pooled human plasma)
# [3] = target: rhesus IgG (total IgG in rhesus macaque plasma)
protein,measurement,setting,value
B1,"cleavage of IgG in serum/plasma in vitro (non-reducing SDS-PAGE, Coomassie stain)",[1],"IdeS is a highly efficient and specific protease of human IgG, rhesus IgG and hamster IgG"
same,"cleavage of IgG in serum/plasma in vitro (non-reducing SDS-PAGE, Coomassie stain)",[2],"IdeS is a highly efficient and specific protease of human IgG, rhesus IgG and hamster IgG"
same,"cleavage of IgG in serum/plasma in vitro (non-reducing SDS-PAGE, Coomassie stain)",[3],"IdeS is a highly efficient and specific protease of human IgG, rhesus IgG and hamster IgG"
